Test results reported in US20240309109A1.

Biological target: human CD38 Fc-fusion aa 45-300 (human) (UniProt P28907)
Experiment: ELISA on CD38 Fc-fusion protein, IgG format

| ELISA CD38 Fc-Fusion protein (% Reactivity of MOR03087) | Binder |
| --- | --- |
| 126% | MOR06189 IgG (antibody, part only; not given: Light chain, constant regions, V domains shown, part only) VH: QVQLVESGGGLVQPGGSLRLSCAASGFTFSSYYMNWVRQAPGKGLEWVSAINMIGNVTNYADSVKGRFTISRDNSKNTLYLQMNSLRAEDTAVYYCARDLPLVYTGFAYWGQGTLVTVSS |
| 125% | MOR06190 IgG (antibody, part only; not given: Light chain, constant regions, V domains shown, part only) VH: QVQLVESGGGLVQPGGSLRLSCAASGFTFSSYYMNWVRQAPGKGLEWVSYINPNGMMTNYADSVKGRFTISRDNSKNTLYLQMNSLRAEDTAVYYCARDLPLVYTGFAYWGQGTLVTVSS |
